Data: PMC11341859

Legend:
[1] = target: LY1 ORF1 ΔC-term (1-609) (Betatorquevirus isolate LY1 (TTMV-LY1)); assay: cryo-EM structure; Expi293-derived ΔC-term virus-like particles, 0.4 mg/ml, Titan Krios 300 kV, 2.69 Å
[2] = target: LY1 ΔARM fragment (ORF1 with residues 2-45 deleted, C-terminus removed by proteolysis in insect cells) (Betatorquevirus isolate LY1 (TTMV-LY1)); assay: cryo-EM structure; Sf9-derived ΔARM fragment virus-like particles, 0.3 mg/ml on graphene oxide grid, Glacios 200 kV, I1 symmetry, 3.9 Å

Substance | stoichiometry N [1] | stoichiometry N [2]
LY1 ORF1 ΔC-term (1-609) (domain or fragment) | 60 | –
LY1 ΔARM fragment (ORF1 with residues 2-45 deleted, C-terminus removed by proteolysis in insect cells) (domain or fragment) | – | 60
